Laboratory results as given in paper PMC2952221.

Target: 40 S ribosomal subunit, wild type (RDN+) (S. cerevisiae (endogenous in NOY908)) (UniProt P32905)
Experiment: co-sedimentation

Sequence of UniProt P32905 (P32905 whole entry, looked up, tested part not stated): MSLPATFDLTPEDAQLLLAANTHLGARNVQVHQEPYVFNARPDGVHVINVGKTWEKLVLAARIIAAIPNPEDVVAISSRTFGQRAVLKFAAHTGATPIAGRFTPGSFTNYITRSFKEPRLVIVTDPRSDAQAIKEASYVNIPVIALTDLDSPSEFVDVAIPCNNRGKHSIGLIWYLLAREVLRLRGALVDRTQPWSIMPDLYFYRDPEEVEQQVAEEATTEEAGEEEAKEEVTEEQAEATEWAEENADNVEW

Row | Substance | percent of the factor loaded on free 40 S subunits [%]
1 | eIF2 (heterotrimeric factor) (from UniProt P20459 1-304; P09064 1-285; P32481 1-527) (complex) | < 5
2 | eIF3 (from UniProt P38249 1-964; Q04067 1-274) (complex) | < 5
3 | eIF5 (from UniProt P38431 1-405) (natural protein) | < 5
